Experimental data as given in patent US20140088174A1.

How the values were obtained:
[1] = biological target: TGFBR1 (transforming growth factor, beta receptor I), endogenous in mouse cells (mouse) (UniProt Q64729); assay: cell-based or functional assay
[2] = biological target: ACVR1B (activin receptor type-1B), endogenous in mouse cells (mouse) (UniProt Q61271); assay: cell-based or functional assay
Sequence of UniProt Q61271 (Q61271 24-505): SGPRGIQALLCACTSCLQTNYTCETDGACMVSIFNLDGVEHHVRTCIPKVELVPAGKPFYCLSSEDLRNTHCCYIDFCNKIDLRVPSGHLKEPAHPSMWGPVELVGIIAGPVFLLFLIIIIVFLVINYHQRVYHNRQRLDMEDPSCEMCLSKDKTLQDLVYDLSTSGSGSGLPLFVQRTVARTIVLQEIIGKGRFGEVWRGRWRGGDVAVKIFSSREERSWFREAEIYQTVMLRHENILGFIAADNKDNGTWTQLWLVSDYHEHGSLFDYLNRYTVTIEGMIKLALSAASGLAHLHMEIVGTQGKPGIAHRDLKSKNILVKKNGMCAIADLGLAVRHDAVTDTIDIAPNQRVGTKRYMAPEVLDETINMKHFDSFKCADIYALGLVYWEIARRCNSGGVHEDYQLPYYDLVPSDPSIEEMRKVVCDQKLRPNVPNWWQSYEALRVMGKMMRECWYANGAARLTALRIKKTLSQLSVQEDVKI

Sequence of UniProt Q64729 (Q64729 30-503): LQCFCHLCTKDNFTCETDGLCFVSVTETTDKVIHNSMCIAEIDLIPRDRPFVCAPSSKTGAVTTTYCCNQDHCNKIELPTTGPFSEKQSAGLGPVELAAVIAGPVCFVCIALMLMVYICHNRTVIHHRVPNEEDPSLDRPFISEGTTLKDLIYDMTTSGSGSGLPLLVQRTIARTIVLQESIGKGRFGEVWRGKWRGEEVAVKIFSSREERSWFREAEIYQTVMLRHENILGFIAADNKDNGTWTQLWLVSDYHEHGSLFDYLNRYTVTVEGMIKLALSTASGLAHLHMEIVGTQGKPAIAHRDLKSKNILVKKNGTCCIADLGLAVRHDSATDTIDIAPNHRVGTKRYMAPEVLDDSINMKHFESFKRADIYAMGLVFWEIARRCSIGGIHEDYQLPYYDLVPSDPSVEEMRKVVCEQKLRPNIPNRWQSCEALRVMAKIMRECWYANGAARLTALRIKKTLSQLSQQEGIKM

| TGF-beta-mediated CAGA luciferase activity in C2C12 and C3H10 T1/2 cells upon siRNA knockdown of TGFBR1 [1] [folds] | myostatin-induced CAGA luciferase in C2C12 cells upon siRNA knockdown of ACVR1B [2] [folds] | myostatin-induced luciferase in C2C12 upon A4E6 AON transfection (fold decrease) [2] | myostatin-induced CAGA luciferase in C3H10 T1/2 cells upon siRNA knockdown of TGFBR1 [1] [folds] | myostatin-induced luciferase in C3H10 T1/2 cells upon TGFBR1 knockdown with A5E2 or A5E6 AON [1] [%] | Substance |
| --- | --- | --- | --- | --- | --- |
| 3 |  |  |  |  | TGF-beta (ligand) |
|  | 5 | 3 | 2.5 | 50 | myostatin (from UniProt O14793 267-375) (ligand) |
